According to patent publication US20210246166A1 (Bayer, published 2021):
Blank lines part the entries; values can stand above or below the binder they belong to. Numbered stars: 1 amine (or outer) side, 2 acyl side, 3 side chain; on linkers, the order of the positions; unused ones are H or OH. Bridge positions count the residues as written; N and C are the ends. Square brackets hold non-standard residues; d marks the D form. Primed or numbered codes have the meaning given here. Ends that are not written are not given here. * marks the point of attachment. X13 = (2S)‑2‑amino‑3‑(1-methylcyclopropyl)propanoic acid, CC1(C[C@H](N[*:1])C(=O)[*:2])CC1; Tranexamic″ = tranexamic acid, NC[C@H]1CC[C@@H](C(=O)*)CC1; Oic = O=C(O)[C@@H]1C[C@@H]2CCCC[C@@H]2N1; Cyclopropylacetic acid = O=C(CC1CC1)*; Gly(cPent) = N[C@H](C(=O)O)C1CCCC1; NMeI = CC[C@H](C)[C@H](NC)C(=O)O; aIle = CC[C@@H](C)[C@H](N)C(=O)O; tBuAla = CC(C)(C)C[C@H](N)C(=O)O; aThr = C[C@H](O)[C@H](N)C(=O)O; Chg = N[C@H](C(=O)O)C1CCCCC1; Pen = CC(C)(S)[C@H](N)C(=O)O; NMeC = CN[C@@H](CS)C(=O)O; Sar = CNCC(=O)O

Columns and labels:
[1] = target: T1, Recombinant human MASP1 enzyme (fragment corresponding to amino acids 297-699, C-terminal His Tag) (human, UniProt P48740 297-699); test: cell-based or functional assay
T1 sequence: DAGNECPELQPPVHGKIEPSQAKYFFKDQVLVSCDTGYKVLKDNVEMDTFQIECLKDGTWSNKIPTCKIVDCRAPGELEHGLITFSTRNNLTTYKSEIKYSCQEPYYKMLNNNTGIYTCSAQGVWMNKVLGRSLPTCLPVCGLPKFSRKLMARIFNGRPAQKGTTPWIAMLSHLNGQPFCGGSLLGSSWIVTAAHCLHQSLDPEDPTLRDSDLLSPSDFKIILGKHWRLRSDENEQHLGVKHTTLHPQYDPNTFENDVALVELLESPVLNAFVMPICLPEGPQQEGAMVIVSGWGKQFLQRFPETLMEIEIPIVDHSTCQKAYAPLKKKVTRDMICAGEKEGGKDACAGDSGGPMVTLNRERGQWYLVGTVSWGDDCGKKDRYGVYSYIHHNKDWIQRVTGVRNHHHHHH

[2] = target: Recombinant human MASP2 enzyme (fragment corresponding to amino acids 297-686, C-terminal His Tag) (human, UniProt O00187 297-686); test: cell-based or functional assay
Recombinant human MASP2 enzyme (fragment corresponding to amino acids 297-686, C-terminal His Tag), sequence (O00187 other isoform, or with tags, fused parts or gaps limits assumed): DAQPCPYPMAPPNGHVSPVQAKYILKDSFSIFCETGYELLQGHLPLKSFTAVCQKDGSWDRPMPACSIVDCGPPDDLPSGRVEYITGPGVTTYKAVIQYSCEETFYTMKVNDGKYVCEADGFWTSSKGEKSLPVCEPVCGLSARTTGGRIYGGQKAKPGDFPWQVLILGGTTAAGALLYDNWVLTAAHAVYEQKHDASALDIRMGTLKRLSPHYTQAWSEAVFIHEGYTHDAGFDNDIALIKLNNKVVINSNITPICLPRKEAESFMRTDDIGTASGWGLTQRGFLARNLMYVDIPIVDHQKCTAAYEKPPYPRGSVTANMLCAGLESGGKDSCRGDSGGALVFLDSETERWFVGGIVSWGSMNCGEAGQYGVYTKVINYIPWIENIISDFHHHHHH

human MASP1 IC50 [1]: 14 nM | human MASP2 IC50 [2]: 1100 nM
B1: G-((N-Me)I)-C+SRSLPPIC+IPD-OH (peptide)
peptide: G[NMeI]CSRSLPPICIPD-OH
modifications: disulfide 3-11; N-terminus assumed
SMILES: CC[C@H](C)[C@@H]1NC(=O)[C@@H]2CCCN2C(=O)[C@@H]2CCCN2C(=O)[C@H](CC(C)C)NC(=O)[C@H](CO)NC(=O)[C@H](CCCNC(=N)N)NC(=O)[C@H](CO)NC(=O)[C@@H](NC(=O)[C@H]([C@@H](C)CC)N(C)C(=O)CN)CSSC[C@@H](C(=O)N[C@H](C(=O)N2CCC[C@H]2C(=O)N[C@@H](CC(=O)O)C(=O)O)[C@@H](C)CC)NC1=O

human MASP1 IC50 [1]: 11 nM | human MASP2 IC50 [2]: 1200 nM
B6: IC+SRSLP-(Oic)-I-(Pen)+IP-OH (peptide)
peptide: ICSRSLP[Oic]I[Pen]IP-OH
modifications: disulfide 2-10; N-terminus assumed
SMILES: CC[C@H](C)[C@H](N)C(=O)N[C@H]1CSSC(C)(C)[C@@H](C(=O)N[C@H](C(=O)N2CCC[C@H]2C(=O)O)[C@@H](C)CC)NC(=O)[C@H]([C@@H](C)CC)NC(=O)[C@@H]2C[C@@H]3CCCC[C@@H]3N2C(=O)[C@@H]2CCCN2C(=O)[C@H](CC(C)C)NC(=O)[C@H](CO)NC(=O)[C@H](CCCNC(=N)N)NC(=O)[C@H](CO)NC1=O

human MASP1 IC50 [1]: 12 nM | human MASP2 IC50 [2]: 290 nM
B9: AIC+SRSLP-(Oic)-(Chg)-C+IPD-NH2 (peptide)
peptide: AICSRSLP[Oic][Chg]CIPD-NH2
modifications: disulfide 3-11; N-terminus assumed
SMILES: CC[C@H](C)[C@H](NC(=O)[C@H](C)N)C(=O)N[C@H]1CSSC[C@@H](C(=O)N[C@H](C(=O)N2CCC[C@H]2C(=O)N[C@@H](CC(=O)O)C(N)=O)[C@@H](C)CC)NC(=O)[C@H](C2CCCCC2)NC(=O)[C@@H]2C[C@@H]3CCCC[C@@H]3N2C(=O)[C@@H]2CCCN2C(=O)[C@H](CC(C)C)NC(=O)[C@H](CO)NC(=O)[C@H](CCCNC(=N)N)NC(=O)[C@H](CO)NC1=O

human MASP1 IC50 [1]: 14 nM | human MASP2 IC50 [2]: 1300 nM
B10: G-((N-Me)I)-C+SRSLPPIC+IPd-OH (peptide)
peptide: G[NMeI]CSRSLPPICIP[dD]-OH
modifications: disulfide 3-11; N-terminus assumed
SMILES: CC[C@H](C)[C@@H]1NC(=O)[C@@H]2CCCN2C(=O)[C@@H]2CCCN2C(=O)[C@H](CC(C)C)NC(=O)[C@H](CO)NC(=O)[C@H](CCCNC(=N)N)NC(=O)[C@H](CO)NC(=O)[C@@H](NC(=O)[C@H]([C@@H](C)CC)N(C)C(=O)CN)CSSC[C@@H](C(=O)N[C@H](C(=O)N2CCC[C@H]2C(=O)N[C@H](CC(=O)O)C(=O)O)[C@@H](C)CC)NC1=O

human MASP1 IC50 [1]: 11 nM | human MASP2 IC50 [2]: 170 nM
B12: AIC+SRSLPP-(Cpg)-C+IPD-NH2 (peptide)
peptide: AICSRSLPP[Gly(cPent)]CIPD-NH2
modifications: disulfide 3-11; N-terminus assumed
SMILES: CC[C@H](C)[C@H](NC(=O)[C@H](C)N)C(=O)N[C@H]1CSSC[C@@H](C(=O)N[C@H](C(=O)N2CCC[C@H]2C(=O)N[C@@H](CC(=O)O)C(N)=O)[C@@H](C)CC)NC(=O)[C@H](C2CCCC2)NC(=O)[C@@H]2CCCN2C(=O)[C@@H]2CCCN2C(=O)[C@H](CC(C)C)NC(=O)[C@H](CO)NC(=O)[C@H](CCCNC(=N)N)NC(=O)[C@H](CO)NC1=O

human MASP1 IC50 [1]: 14 nM | human MASP2 IC50 [2]: 61 nM
B14: Ac-IC+SRS-((tBu)A)-PPI-((N-Me)C)+I-NH2 (peptide)
peptide: Ac-ICSRS[tBuAla]PPI[NMeC]I-NH2
modifications: disulfide 2-10
SMILES: CC[C@H](C)[C@H](NC(=O)[C@@H]1CSSC[C@H](NC(=O)[C@@H](NC(C)=O)[C@@H](C)CC)C(=O)N[C@@H](CO)C(=O)N[C@@H](CCCNC(=N)N)C(=O)N[C@@H](CO)C(=O)N[C@@H](CC(C)(C)C)C(=O)N2CCC[C@H]2C(=O)N2CCC[C@H]2C(=O)N[C@@H]([C@@H](C)CC)C(=O)N1C)C(N)=O

The next lines start with the binder.

B2: ((N-Me)G)-IC+SRSLPPIC+(allo-I)-PD-NH2 (peptide)
peptide: [Sar]ICSRSLPPIC[aIle]PD-NH2
modifications: disulfide 3-11; N-terminus assumed
SMILES: CC[C@@H](C)[C@H](NC(=O)[C@@H]1CSSC[C@H](NC(=O)[C@@H](NC(=O)CNC)[C@@H](C)CC)C(=O)N[C@@H](CO)C(=O)N[C@@H](CCCNC(=N)N)C(=O)N[C@@H](CO)C(=O)N[C@@H](CC(C)C)C(=O)N2CCC[C@H]2C(=O)N2CCC[C@H]2C(=O)N[C@@H]([C@@H](C)CC)C(=O)N1)C(=O)N1CCC[C@H]1C(=O)N[C@@H](CC(=O)O)C(N)=O
human MASP1 IC50 [1]: 14 nM | human MASP2 IC50 [2]: 170 nM

B3: (Tranexamic)-IC+SRS-((tBu)A)-PPI-(Pen)+IP-NH2 (peptide)
peptide: {Tranexamic″}-ICSRS[tBuAla]PPI[Pen]IP-NH2
modifications: disulfide 2-10
SMILES: CC[C@H](C)[C@@H]1NC(=O)[C@@H]2CCCN2C(=O)[C@@H]2CCCN2C(=O)[C@H](CC(C)(C)C)NC(=O)[C@H](CO)NC(=O)[C@H](CCCNC(=N)N)NC(=O)[C@H](CO)NC(=O)[C@@H](NC(=O)[C@@H](NC(=O)[C@H]2CC[C@@H](CN)CC2)[C@@H](C)CC)CSSC(C)(C)[C@@H](C(=O)N[C@H](C(=O)N2CCC[C@H]2C(N)=O)[C@@H](C)CC)NC1=O
human MASP1 IC50 [1]: 12 nM | human MASP2 IC50 [2]: 17 nM

B4: ((N-Me)G)-((N-Me)G)-((N-Me)G)-((N-Me)G)-((N-Me)G)-IC+SRS-((tBu)A)-PPI-(Pen)+IP-NH2 (peptide)
peptide: [Sar][Sar][Sar][Sar][Sar]ICSRS[tBuAla]PPI[Pen]IP-NH2
modifications: disulfide 7-15; N-terminus assumed
SMILES: CC[C@H](C)[C@H](NC(=O)CN(C)C(=O)CN(C)C(=O)CN(C)C(=O)CN(C)C(=O)CNC)C(=O)N[C@H]1CSSC(C)(C)[C@@H](C(=O)N[C@H](C(=O)N2CCC[C@H]2C(N)=O)[C@@H](C)CC)NC(=O)[C@H]([C@@H](C)CC)NC(=O)[C@@H]2CCCN2C(=O)[C@@H]2CCCN2C(=O)[C@H](CC(C)(C)C)NC(=O)[C@H](CO)NC(=O)[C@H](CCCNC(=N)N)NC(=O)[C@H](CO)NC1=O
human MASP1 IC50 [1]: 11 nM | human MASP2 IC50 [2]: 38 nM

B5: ((N-Me)G)-IC+SRSLPPIC+IPD-OH (peptide)
peptide: [Sar]ICSRSLPPICIPD-OH
modifications: disulfide 3-11; N-terminus assumed
SMILES: CC[C@H](C)[C@H](NC(=O)CNC)C(=O)N[C@H]1CSSC[C@@H](C(=O)N[C@H](C(=O)N2CCC[C@H]2C(=O)N[C@@H](CC(=O)O)C(=O)O)[C@@H](C)CC)NC(=O)[C@H]([C@@H](C)CC)NC(=O)[C@@H]2CCCN2C(=O)[C@@H]2CCCN2C(=O)[C@H](CC(C)C)NC(=O)[C@H](CO)NC(=O)[C@H](CCCNC(=N)N)NC(=O)[C@H](CO)NC1=O
human MASP1 IC50 [1]: 15 nM | human MASP2 IC50 [2]: 535 nM

B7: ((N-Me)G)-IC+SRS-((2S)-2-amino-3-(1-methylcyclopropyl)propanoic acid)-P-(Oic)-I-(Pen)+IP-NH2 (peptide)
peptide: [Sar]ICSRS[X13]P[Oic]I[Pen]IP-NH2
modifications: disulfide 3-11; N-terminus assumed
SMILES: CC[C@H](C)[C@H](NC(=O)CNC)C(=O)N[C@H]1CSSC(C)(C)[C@@H](C(=O)N[C@H](C(=O)N2CCC[C@H]2C(N)=O)[C@@H](C)CC)NC(=O)[C@H]([C@@H](C)CC)NC(=O)[C@@H]2C[C@@H]3CCCC[C@@H]3N2C(=O)[C@@H]2CCCN2C(=O)[C@H](CC2(C)CC2)NC(=O)[C@H](CO)NC(=O)[C@H](CCCNC(=N)N)NC(=O)[C@H](CO)NC1=O
human MASP1 IC50 [1]: 11 nM | human MASP2 IC50 [2]: 57 nM

B8: (Cyclopropylacetic acid)-IC+SRS-((tBu)A)-PPI-((N-Me)C)+I-NH2 (peptide)
peptide: {Cyclopropylacetic acid}-ICSRS[tBuAla]PPI[NMeC]I-NH2
modifications: disulfide 2-10
SMILES: CC[C@H](C)[C@H](NC(=O)[C@@H]1CSSC[C@H](NC(=O)[C@@H](NC(=O)CC2CC2)[C@@H](C)CC)C(=O)N[C@@H](CO)C(=O)N[C@@H](CCCNC(=N)N)C(=O)N[C@@H](CO)C(=O)N[C@@H](CC(C)(C)C)C(=O)N2CCC[C@H]2C(=O)N2CCC[C@H]2C(=O)N[C@@H]([C@@H](C)CC)C(=O)N1C)C(N)=O
human MASP1 IC50 [1]: 13 nM | human MASP2 IC50 [2]: 55 nM

Binder: AICSRS[3‑(Trimethylsilyl)‑L‑alanine]P[Oic]I[NMeC]IPD-NH2 (disulfide 3-11) [AIC+SRS-(3-(Trimethylsilyl)-L-alanine)-P-(Oic)-I-((N-Me)C)+IPD-NH2]
human MASP1 IC50 [1]: 14 nM | human MASP2 IC50 [2]: 1100 nM

B11: AIC+SR-(allo-T)-LPPIC+IPD-NH2 (peptide)
peptide: AICSR[aThr]LPPICIPD-NH2
modifications: disulfide 3-11; N-terminus assumed
SMILES: CC[C@H](C)[C@H](NC(=O)[C@H](C)N)C(=O)N[C@H]1CSSC[C@@H](C(=O)N[C@H](C(=O)N2CCC[C@H]2C(=O)N[C@@H](CC(=O)O)C(N)=O)[C@@H](C)CC)NC(=O)[C@H]([C@@H](C)CC)NC(=O)[C@@H]2CCCN2C(=O)[C@@H]2CCCN2C(=O)[C@H](CC(C)C)NC(=O)[C@H]([C@H](C)O)NC(=O)[C@H](CCCNC(=N)N)NC(=O)[C@H](CO)NC1=O
human MASP1 IC50 [1]: 14 nM | human MASP2 IC50 [2]: 330 nM

B13: AIC+SRS-((tBu)A)-P-(Oic)-I-((N-Me)C)+IPD-NH2 (peptide)
peptide: AICSRS[tBuAla]P[Oic]I[NMeC]IPD-NH2
modifications: disulfide 3-11; N-terminus assumed
SMILES: CC[C@H](C)[C@H](NC(=O)[C@H](C)N)C(=O)N[C@H]1CSSC[C@@H](C(=O)N[C@H](C(=O)N2CCC[C@H]2C(=O)N[C@@H](CC(=O)O)C(N)=O)[C@@H](C)CC)N(C)C(=O)[C@H]([C@@H](C)CC)NC(=O)[C@@H]2C[C@@H]3CCCC[C@@H]3N2C(=O)[C@@H]2CCCN2C(=O)[C@H](CC(C)(C)C)NC(=O)[C@H](CO)NC(=O)[C@H](CCCNC(=N)N)NC(=O)[C@H](CO)NC1=O
human MASP1 IC50 [1]: 12 nM | human MASP2 IC50 [2]: 370 nM

Binder: [Sar]ICSRSLP[Oic]I[Pen]IP-NH2 (disulfide 3-11; also: tartrate salt) [((N-Me)G)-IC+SRSLP-(Oic)-I-(Pen)+IP-NH2 (Tartrate)]
human MASP1 IC50 [1]: 1.1 nM | human MASP2 IC50 [2]: 35 nM
